Data published in paper PMC8509923.

Target: T1, Upc2A DNA-binding domain (Candida glabrata) (UniProt Q6FX18)
T1 sequence: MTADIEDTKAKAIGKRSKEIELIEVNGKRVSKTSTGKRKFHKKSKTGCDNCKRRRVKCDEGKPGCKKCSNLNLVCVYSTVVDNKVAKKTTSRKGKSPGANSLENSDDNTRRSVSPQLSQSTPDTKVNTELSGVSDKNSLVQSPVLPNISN
Experiment: DNase I footprinting
Details: 5' amino-MC6 on reverse strand

“ACTGCCACACAGAAGAGCAGCGGGACTACCGGAACACGATTAGCCTTCGTTTACATGTTGGCAAACCCAGGACATAGATCAGAGTGTATTACATTAGCACAGACCGGCCGTGGGTAAGTTTTTCCTGACTAAAATGGCCGCAGCTGCAAGTCCACGGAATATTTCCCTTTTTTGCTCGATAAGTTGTAC (double strand) [CDR1 promoter DNase I probe]” was tested, and the binding was “binds”.
